The values that follow come from article PMC5640987 (Nature, 2017).

The target of one data set is Tor1 (budding yeast (endogenous), UniProt P35169 1-2470). In words: cryo-EM structure.
The data set “cryo-EM structure” concerns the molecule itself. In words: cryo-EM structure.

Tor1, sequence (P35169 whole entry): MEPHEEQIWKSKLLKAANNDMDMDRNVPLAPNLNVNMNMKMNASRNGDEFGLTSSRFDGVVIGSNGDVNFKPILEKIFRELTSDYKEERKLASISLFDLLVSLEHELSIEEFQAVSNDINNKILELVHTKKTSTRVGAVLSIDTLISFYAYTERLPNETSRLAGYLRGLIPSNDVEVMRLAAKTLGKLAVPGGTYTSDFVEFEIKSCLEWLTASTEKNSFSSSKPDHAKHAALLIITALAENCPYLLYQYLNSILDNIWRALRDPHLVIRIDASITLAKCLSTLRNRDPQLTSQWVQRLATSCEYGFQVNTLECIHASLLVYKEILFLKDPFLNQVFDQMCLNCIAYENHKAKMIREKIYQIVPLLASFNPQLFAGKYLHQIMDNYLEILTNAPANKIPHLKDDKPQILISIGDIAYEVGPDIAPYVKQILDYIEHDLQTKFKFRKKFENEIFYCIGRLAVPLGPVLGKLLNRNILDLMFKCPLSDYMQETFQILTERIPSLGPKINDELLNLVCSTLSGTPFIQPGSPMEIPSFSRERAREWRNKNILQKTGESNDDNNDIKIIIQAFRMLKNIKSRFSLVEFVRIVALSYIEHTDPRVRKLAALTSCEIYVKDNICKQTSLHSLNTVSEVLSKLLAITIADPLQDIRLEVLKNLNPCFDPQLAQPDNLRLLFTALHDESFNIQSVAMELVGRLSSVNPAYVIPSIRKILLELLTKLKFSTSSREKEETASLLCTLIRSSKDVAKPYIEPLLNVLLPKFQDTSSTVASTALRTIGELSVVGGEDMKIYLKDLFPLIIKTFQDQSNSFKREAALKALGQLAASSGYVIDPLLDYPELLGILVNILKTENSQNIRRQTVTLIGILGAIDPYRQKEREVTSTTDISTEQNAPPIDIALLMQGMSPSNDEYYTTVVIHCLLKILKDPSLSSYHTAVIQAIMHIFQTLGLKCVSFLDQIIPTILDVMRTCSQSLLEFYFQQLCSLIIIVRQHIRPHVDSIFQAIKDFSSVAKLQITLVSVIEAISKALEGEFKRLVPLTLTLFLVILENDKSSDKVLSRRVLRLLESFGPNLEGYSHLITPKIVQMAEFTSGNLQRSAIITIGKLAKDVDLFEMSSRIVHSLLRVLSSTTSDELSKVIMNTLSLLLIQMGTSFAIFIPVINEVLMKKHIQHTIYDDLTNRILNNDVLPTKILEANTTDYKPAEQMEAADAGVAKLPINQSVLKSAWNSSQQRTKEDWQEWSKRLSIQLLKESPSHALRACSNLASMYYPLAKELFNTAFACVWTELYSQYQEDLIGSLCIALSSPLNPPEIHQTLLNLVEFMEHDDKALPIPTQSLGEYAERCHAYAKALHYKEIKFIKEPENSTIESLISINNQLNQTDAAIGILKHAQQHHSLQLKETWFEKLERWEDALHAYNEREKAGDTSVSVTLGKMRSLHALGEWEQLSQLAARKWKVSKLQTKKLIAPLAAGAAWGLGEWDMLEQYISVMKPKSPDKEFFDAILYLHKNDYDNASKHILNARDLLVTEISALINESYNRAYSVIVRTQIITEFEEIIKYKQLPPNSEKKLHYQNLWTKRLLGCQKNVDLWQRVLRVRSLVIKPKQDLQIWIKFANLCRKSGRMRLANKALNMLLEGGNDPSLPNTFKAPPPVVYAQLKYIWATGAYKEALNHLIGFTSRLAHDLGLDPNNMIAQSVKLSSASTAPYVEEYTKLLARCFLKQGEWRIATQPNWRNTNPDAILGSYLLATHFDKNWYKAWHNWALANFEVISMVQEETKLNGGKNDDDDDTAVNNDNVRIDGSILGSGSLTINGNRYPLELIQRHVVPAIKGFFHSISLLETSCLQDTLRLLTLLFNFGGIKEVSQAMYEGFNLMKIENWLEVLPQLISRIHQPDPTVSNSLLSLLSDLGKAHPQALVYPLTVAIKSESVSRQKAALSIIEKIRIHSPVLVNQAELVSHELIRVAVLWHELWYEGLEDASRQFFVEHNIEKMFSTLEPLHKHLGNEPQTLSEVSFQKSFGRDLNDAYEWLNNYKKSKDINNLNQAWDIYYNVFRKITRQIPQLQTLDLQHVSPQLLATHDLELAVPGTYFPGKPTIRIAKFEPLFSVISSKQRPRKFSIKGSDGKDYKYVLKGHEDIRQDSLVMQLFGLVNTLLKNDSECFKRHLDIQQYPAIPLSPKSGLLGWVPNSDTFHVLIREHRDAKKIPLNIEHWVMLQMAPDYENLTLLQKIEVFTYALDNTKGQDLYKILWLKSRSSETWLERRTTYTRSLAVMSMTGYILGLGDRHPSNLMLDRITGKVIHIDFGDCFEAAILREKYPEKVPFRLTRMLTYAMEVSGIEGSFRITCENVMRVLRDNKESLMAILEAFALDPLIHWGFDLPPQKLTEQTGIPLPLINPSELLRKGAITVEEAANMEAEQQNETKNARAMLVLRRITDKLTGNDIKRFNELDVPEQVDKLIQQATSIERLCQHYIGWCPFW

B1: Kog1 in the purified TORC1 helix (natural protein)
chain: MPEIYGPQPLKPLNTVMRHGFEEQYQSDQLLQSLANDFIFYFDDKRHKTNGNPIPEEDKQRDVNRYYQPITDWKIMKDRQKTVSAALLLCLNLGVDPPDVMKTHPCARVEAWVDPLNFQDSKKAIEQIGKNLQAQYETLSLRTRYKQSLDPCVEDVKRFCNSLRRTSKEDRILFHYNGHGVPKPTKSGEIWVFNRGYTQYIPVSLYDLQTWLGAPCIFVYDCNSAENILINFQKFVQKRIKDDEEGNHDVAAPSPTSAYQDCFQLASCTSDELLLMSPELPADLFSCCLTCPIEISIRIFLMQSPLKDSKYKIFFENSTSNQPFGDSKNSFKSKIPNVNIPGMLSDRRTPLGELNWIFTAITDTIAWTSLPRPLFKKLFRHDLMIAALFRNFLLAKRIMPWYNCHPVSDPELPDSITTHPMWKSWDLAMDEVLTKIVIDLKNAPPATALESQMILQQQETLQNGGSSKSNAQDTKAGSIQTQSRFAVANLSTMSLVNNPALQSRKSISLQSSQQQLQQQQQQQQQFTGFFEQNLTAFELWLKYASNVRHPPEQLPIVLQVLLSQVHRIRALVLLSRFLDLGPWAVYLSLSIGIFPYVLKLLQSPAPELKPILVFIWARIMSIDYKNTQSELIKEKGYMYFVTVLVPDWGVNGMSATNGSAMINSGNPLTMTASQNINGPSSRYYERQQGNRTSNLGHNNLPFYHSNDTTDEQKAMAVFVLASFVRNFPLGQKNCFSLELVNKLCFYIDNSEIPLLRQWCVILLGLLFADNPLNRFVCMNTGAVEILLKSLKDPVPEVRTASIFALKHFISGFQDAEVILRLQQEFEEQYQQLHSQLQHLQNQSHLQQQQSQQQQQHLEQQQMKIEKQIRHCQVMQNQLEVIDLRKLKRQEIGNLISILPLINDGSSLVRKELVVYFSHIVSRYSNFFIVVVFNDLLEEIKLLEKSDINTRNTSDKYSVSQGSIFYTVWKSLLILAEDPFLENKELSKQVIDYILLELSAHKELGGPFAVMEKFLLKRSSKAHQTGKFGFNSSQVQFVKSSLRSFSPNERVDNNAFKKEQQQHDPKISHPMRTSLAKLFQSLGFSESNSDSDTQSSNTSMKSHTSKKGPSGLYLLNGNNNIYPTAETPRFRKHTEPLQLPLNSSFLDYSREYFQEPQMKKQEADEPGSVEYNARLWRRNRNETIIQETQGEKKLSIYGNWSKKLISLNNKSQPKLMKFAQFEDQLITADDRSTITVFDWEKGKTLSKFSNGTPFGTKVTDLKLINEDDSALLLTGSSDGVIKIYRDYQDVDTFKIVSAWRGLTDMLLTPRSTGLLTEWLQIRGSLLTTGDVKVIRVWDAHTETVEVDIPAKTSSLITSLTADQLAGNIFVAGFADGSLRVYDRRLDPRDSMIRRWRAGNDKQGVWINNVHLQRGGYRELVSGATNGVVELWDIRSEDPVESFVDQNVTSQYGSQQKPTTMTCMQVHEHAPIIATGTKQIKIWTTSGDLLNSFKNSHNNGVTSTLAATGIPKSLSYSSTSDAFLSSMAFHPHRMMIAATNSHDSIVNIYKCEDERIDYF
As for B1, the binding result in the data set with Tor1 and in “cryo-EM structure” was “binds” throughout.
